Measurements as given in US20240238374A1, “METHODS AND COMPOSITIONS FOR INDUCING BROWN ADIPOGENESIS” (ENERGESIS PHARMACEUTICALS, INC., priority 2021, published 2024).

Test system: Diet-Induced Obese (DIO) mouse
Assay: Diet-Induced Obese (DIO) mouse study: hFGF7 alone and with semaglutide, 28 days of dosing
Assay type: in vivo, C57Bl/6 mice
Settings: DIO mice
Protocol: Obesity and insulin resistance, an early stage in the development of type 2 diabetes (also known as pre-diabetes), was induced in C57Bl/6 mice by feeding the mice with a high fat diet (Research Diets, Cat #D12492, 60% fat kcal) for 12 weeks starting at 6 weeks of age, and throughout the period of compound dosing. The mice were housed at 22-23° C. and abundant nestlets/bedding material was provided to allow the animals to maintain a microenvironment close to their thermoneutrality of 28-30° C., starting 2 weeks prior to the dosing period and for the full dosing period with a 12 h/12 h light/dark cycle. These environmental conditions are understood by those skilled in the art to reduce the stimulus for maintaining BAT, a thermogenic tissue that is recruited physiologically by cold stimulus, and permit a wider window for observing effects related to BAT recruitment.
Mice were dosed once per day by intraperitoneal injection (100 μl per mouse) with vehicle (9.6 mg/ml mannitol, 4.8 mg/ml sucrose, 0.37 mg/ml L-histidine, 0.025 mg/ml polysorbate 20 (Tween 20, CAS #9005-64-5), […], also referred to as EGS0501 in corresponding figures) dissolved in the vehicle for 28 days. In addition, some mice also received semaglutide (0.012 mg/kg=3 nmol/kg) every 3 days by intraperitoneal injection (100 μl per mouse) dissolved in the vehicle.
Body weight was recorded every day and body composition (fat and lean mass with EchoMRI) was assessed at the end of the study (University of Cincinnati Mouse Metabolic Phenotyping Center). At the end of the dosing period, animals were fasted for 6 hours and euthanized by CO2, blood was collected, and plasma was isolated and frozen at −20° C. Plasma glucose, insulin and leptin levels were assessed at baseline and at the end of the dosing period (mice were fasted for 6 hours before all plasma collection) (University of Cincinnati Mouse Metabolic Phenotyping Center). Insulin sensitivity was determined by HOMA-IR.
Data from in vivo mouse studies are presented as means±SEM. Significance values were evaluated based on the unpaired two-tailed t-test versus vehicle using GraphPad Prism version 7 or 8 (GraphPad Software, San Diego, CA). To assess synergistic effects of A and B, the combination A+B was compared to the sum of A alone and B alone. To quantify synergistic effects, we used percent changes from baseline when baseline data were available and used the difference from vehicle for parameters without baseline data.

B1: hFGF7: recombinant human Fibroblast Growth Factor-7, also referred to as EGS0501; SEQ ID NO: 8 is the sequence for human FGF7 (protein, listed as Homo sapiens)
chain: MHKWILTWILPTLLYRSCFHIICLVGTISLACNDMTPEQMATNVNCSSPERHTRSYDYMEGGDIRVRRLFCRTQWYLRIDKRGKVKGTQEMKNNYNIMEIRTVAVGIVAIKGVESEFYLAMNKEGKLYAKKECNEDCNFKELILENHYNTYASAKWTHNGGEMFVALNQKGIPVRGKKTKKEQKTAHFLPMAIT
modifications: (1)..(194) Fibroblast Growth Factor-7
With B1 the “plasma glucose compared to vehicle” value (hFGF7 0.5 mg/kg ip once a day) was “significant effect”, the “body weight compared to vehicle” value (hFGF7 1 mg/kg ip once a day) was “significant decreases” and the “epididymal white adipose (WATepi) depot weight compared to vehicle” value (hFGF7 1 mg/kg ip once a day) was “significant decreases”. The “insulin resistance index (HOMA-IR) compared to vehicle” value (hFGF7 1 mg/kg ip once a day) was “significant decreases”, the “plasma glucose compared to vehicle” value (hFGF7 1 mg/kg ip once a day) was “significant decreases” and the “plasma insulin compared to vehicle” value (hFGF7 1 mg/kg ip once a day) was “significant decreases”. The “plasma leptin compared to vehicle” value (hFGF7 1 mg/kg ip once a day) was “significant decreases”.
